The target of this experiment is T1, human dopamine D2 long receptor (D2LR) fused C-terminally to LgBiT or SmBiT of NanoLuciferase (human), P14416.
T1 chain: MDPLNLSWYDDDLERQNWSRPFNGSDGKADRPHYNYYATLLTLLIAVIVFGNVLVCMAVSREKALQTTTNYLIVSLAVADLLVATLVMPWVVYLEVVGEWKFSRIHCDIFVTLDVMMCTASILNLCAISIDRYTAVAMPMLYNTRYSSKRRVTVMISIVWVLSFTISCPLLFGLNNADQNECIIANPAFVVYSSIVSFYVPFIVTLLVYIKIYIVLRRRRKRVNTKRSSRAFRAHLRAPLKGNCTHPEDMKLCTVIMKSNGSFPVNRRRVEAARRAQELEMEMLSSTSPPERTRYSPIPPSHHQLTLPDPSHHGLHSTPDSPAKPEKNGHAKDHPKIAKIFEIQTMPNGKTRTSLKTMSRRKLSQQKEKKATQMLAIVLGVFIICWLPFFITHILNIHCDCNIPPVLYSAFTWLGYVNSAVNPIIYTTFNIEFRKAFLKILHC
Briefly: split reporter (BiFC, NanoBiT); NanoBiT in HEK293T cells co-transfected with 400 ng D2LR–SmBiT, D2LR–LgBiT and increasing native (untagged) D2LR DNA (0–600 ng), without or with 10 µM spiperone; muscarinic M1 receptor co-transfected instead as control. Particulars: remark: other sources report otherwise.

1 molecule from paper PMC6480712 can be followed below.

B1: human dopamine D2 long receptor (D2LR) fused C-terminally to LgBiT or SmBiT of NanoLuciferase, P14416-1 1-443 (receptor)
chain: T1 chain
The molecule B1 showed a fold increase of the luminescent signal with co-transfected native D2LR (4:4:6) against none of 20 fold and a fold increase of the luminescent signal with co-transfected native D2LR (4:4:6) against none, cells treated with 10 µM spiperone of 5 fold.
